From US20230060095A1 (Regeneron, published 2023)
Changes are numbered by the printed parent chain.

T1: PRAME peptide on HLA-A*02:01 (human)
T1 peptide: SLLQHLIGL

T2: peptide on HLA-A*02:01 (human)
T2 peptide: SLLMWITQC

B1: PN42365 (TCR, V domains shown)
V domain 1: TQLLEQSPQFLSIQEGENLTVYCNSSSVFSSLQWYRQEPGEGPVLLVTVVTGGEVKKLKRLTFQFGDARKDSSLHITAAQPGDTGLYLCAANGGSQGNLIFGKGTKLSVKP
V domain 2: DAGVTQSPTHLIKTRGQQVTLRCSPKSGHDTVSWYQQALGQGPQFIFQYYEEEERQRGNFPDRFSGHQFPNYSSELNVNALLLGDSALYLCASSLQDYGYTFGSGTRLTVV
B2: PN42386 (TCR, V domains shown)
V domain 1: B1 V domain 1 with A91T
V domain 2: B1 V domain 2
B3: PN42498 (TCR, V domains shown)
V domain 1: B1 V domain 1 with A91G, N92D
V domain 2: B1 V domain 2 with Q96V
B4: PN42689 (TCR, V domains shown)
V domain 1: B1 V domain 1 with A91E, N92D
V domain 2: B1 V domain 2 with Q96S
B5: PN42840 (TCR, V domains shown)
V domain 1: B1 V domain 1 with A91E, N92G
V domain 2: B1 V domain 2 with L95W, Q96T
B6: PN42561 (TCR, V domains shown)
V domain 1: DAKTTQPNSMESNEEEPVHLPCNHSTISGTDYIHWYRQLPSQGPEYVIHGLTSNVNNRMASLAIAEDRKSSTLILHRATLRDAAVYYCILRDGTGNQFYFGTGTSLTVIP
V domain 2: EAQVTQNPRYLITVTGKKLTVTCSQNMNHEYMSWYRQDPGLGLRQIYYSMNVEVTDKGDVPEGYKVSRKEKRNFPLILESPSPNQTSLYFCASSLWTGGGYTFGSGTRLTVV
B7: PN42780 (TCR, V domains shown)
V domain 1: TQLLEQSPQFLSIQEGENLTVYCNSSSVFSSLQWYRQEPGEGPVLLVTVVTGGEVKKLKRLTFQFGDARKDSSLHITAAQPGDTGLYLCAGGTSGTYKYIFGTGTRLKVLA
V domain 2: EAQVTQNPRYLITVTGKKLTVTCSQNMNHEYMSWYRQDPGLGLRQIYYSMNVEVTDKGDVPEGYKVSRKEKRNFPLILESPSPNQTSLYFCASSPGTPNYGYTFGSGTRLTVV
B8: PN42442 (TCR, V domains shown)
V domain 1: B7 V domain 1
V domain 2: B7 V domain 2 with P98A
B9: PN42562 (TCR, V domains shown)
V domain 1: B7 V domain 1 with T93P
V domain 2: B7 V domain 2
B10: PN42706 (TCR, V domains shown)
V domain 1: GIQVEQSPPDLILQEGANSTLRCNFSDSVNNLQWFHQNPWGQLINLFYIPSGTKQNGRLSATTVATERYSLLYISSSQTTDSGVYFCAVEASGTYKYIFGTGTRLKVLA
V domain 2: B7 V domain 2 with P95W, P98G, N99G
B11: PN42378 (TCR, V domains shown)
V domain 1: DAKTTQPNSMESNEEEPVHLPCNHSTISGTDYIHWYRQLPSQGPEYVIHGLTSNVNNRMASLAIAEDRKSSTLILHRSTLRDAAVYYCILRPDSWGKFQFGAGTQVVVTP
V domain 2: B1 V domain 2
notes: stained with anti-mouse TCR constant region antibody H57-597) and full-length chains were expressed on CHO cells
B12: PN42455 (TCR, V domains shown)
V domain 1: B11 V domain 1
V domain 2: B1 V domain 2 with Q96V
notes: as for B11
B13: PN42776 (TCR, V domains shown)
V domain 1: B11 V domain 1
V domain 2: B1 V domain 2 with L95W, Q96T
notes: as for B11
B14: PN42750 (TCR, V domains shown)
V domain 1: B11 V domain 1
V domain 2: DVKVTQSSRYLVKRTGEKVFLECVQDMDHENMFWYRQDPGLGLRLIYFSYDVKMKEKGDIPEGYSVSREKKERFSLILESASTNQTSMYLCASSTVRQGNYGYTFGSGTRLTVV
notes: as for B11
B15: PN42476 (TCR)
TCR alpha: B11 V domain 1
TCR beta: EAQVTQSPRYLITVTGKKLTVTCSQNMDHEYMSWYRQDPGLGLRQIYYSMNVEVTDKGDVPEGYKVPRKEKRSFPLILESPCCSQTPLYLCASSLGGVDERLSFGSGTQLSVL
notes: as for B11
B16: PN42655 (TCR, V domains shown)
V domain 1: B11 V domain 1
V domain 2: B6 V domain 2
notes: as for B11
B17: PN42654 (TCR, V domains shown)
V domain 1: B6 V domain 1 with T94I
V domain 2: B6 V domain 2
B18: PN42677 (TCR, V domains shown)
V domain 1: B6 V domain 1
V domain 2: B6 V domain 2 with L95S, W96T, T97G, G98Y, G99Y
B19: PN42879 (TCR, V domains shown)
V domain 1: TQLLEQSPQFLSIQEGENLTVYCNSSSVFSSLQWYRQEPGEGPVLLVTVVTGGEVKKLKRLTFQFGDARKDSSLHITAAQPGDTGLYLCAGEDFGNEKLTFGTGTRLTIIP
V domain 2: B1 V domain 2 with L95W, Q96A
B20: PN42483 (TCR, V domains shown)
V domain 1: B1 V domain 1 with A91G, N92D
V domain 2: EAQVTQSPRYLITVTGKKLTVTCSQNMNHEYMSWYRQDPGLGLRQIYYSMNVEVTDKGDVPEGYKVSRKEKRNFPLILESPSPNQTSLYFCASSLGGADEKLFFGSGTQLSVL
B21: PN42683 (TCR, V domains shown)
V domain 1: DAKTTQPNSMESNEEEPVHLPCNHSTISGTDYIHWYRQLPSQGPEYVIHGLTSNVNNRMASLAIAEDRKSSTLILHRATLRDAAVYYCILRDREYGNKLVFGAGTILRVKS
V domain 2: B6 V domain 2
B22: PN42610 (TCR, V domains shown)
V domain 1: QKEVEQNSGPLSVPEGAIASLNCTYSDRGSQSFFWYRQYSGKSPELIMSIYSNGDKEDGRFTAQLNKASQYVSLLIRDSQPSDSATYLCAGNYGQNFVFGPGTRLSVLP
V domain 2: AAGVIQSPRHLIKEKRETATLKCYPIPRHDTVYWYQQGPGQDPQFLISFYEKMQSDKGSIPDRFSAQQFSDYHSELNMSSLELGDSALYFCASSIGLNQPQHFGDGTRLSIL

Target: HLA-A2/PRAME (425-433) on HLA-A2*01 HEK293T cells pulsed with PRAME 425-433 peptide (human)
Test: cell-based or functional assay

Binder	EC50 (µM) of peptide, AP1 luciferase reporter in Jurkat cells expressing the TCR
B1	0.0159 µM
B2	0.0271 µM
B3	0.00242 µM
B4	0.0095 µM
B5	0.0309 µM
B6	0.0137 µM
B7	1.25 µM
B8	0.232 µM
B9	0.0281 µM
B10	0.727 µM

Target: T1, PRAME peptide on HLA-A*02:01
Test: multimer staining

Binder	binding result
B1	recognises
B2	recognises
B3	recognises
B4	recognises
B5	recognises
B6	recognises
B7	recognises
B8	recognises
B9	recognises
B10	recognises
B11	recognises
B12	recognises
B13	recognises
B14	recognises
B15	recognises
B16	recognises

Target: T2, peptide on HLA-A*02:01
Test: activation reporter or marker

Binder	binding result
B1	no recognition
B2	no recognition
B3	no recognition
B4	no recognition
B5	no recognition
B6	no recognition
B17	no recognition
B18	no recognition
B7	no recognition
B8	no recognition
B9	no recognition
B10	no recognition
B19	no recognition
B20	no recognition
B16	no recognition
B21	no recognition
B22	no recognition

Target: T3, soluble HLA:A2:PRAME (425-433) tetramer (human)
T3 construct: Commercial tetramer (MBL International); construct limits, biotin tag and streptavidin/fluorophore not described; also called PRAME/HLA tetramer reagent; PRAME (425-433)/HLA-A2
Test: flow cytometry, soluble pMHC tetramer on CHO cells expressing the TCR;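 note: CHO cells transfected with vectors encoding full-length paired TCR alpha and beta chains, stained with PRAME/HLA tetramer and read by flow cytometry, each value reflects one listed TCR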

Binder	Cell Frequency ≥1000 MFI, ≥1% (% tetramer positive cells in the Ag+ gate)
B1	95.8%
B2	82.2%
B3	90.3%
B4	4.92%
B5	52.5%
B6	80.2%
B17	20.1%
B18	25.3%
B7	4.89%
B8	61.3%
B9	92%
B10	24.7%
B19	93.1%
B11	77.5%
B12	53%
B13	60.2%
B14	40.8%
B20	86.4%
B15	54.2%
B16	27%
B21	11.1%
B22	6.08%
